Laboratory results reported in PMC3646895, “The Carboxy-Terminal αN Helix of the Archaeal XerA Tyrosine Recombinase Is a Molecular Switch to Control Site-Specific Recombination” (PLoS ONE, 2013).
“And” between values parts separate entries of the source, which are not always exact repeats. Equal entries are not always repeated.

B1: XerA-ΔC, XerA deleted for the last 13 amino-acids (αN helix), N-terminal His-tagged (domain or fragment, Pyrococcus abyssi, UniProt Q9V1P5 1-273, looked up)
chain: MEEREERVRDDTIEEFATYLELEGKSRNTVRMYTYYISKFFEEGHSPTARDALRFLAKLKRKGYSTRSLNLVIQALKAYFKFEGLDSEAEKLKTPKMPKTLPKSLTEEEVRRIINAAETLRDRLILLLLYGAGLRVSELCNLRVEDVNFEYGVIVVRGGKGGKDRVVPISESLLSEIKRYLESRNDDSPYLFVEMKRKRKDKLSPKTVWRLVKKYGRKAGVELTPHQLRHSFATHMLERGIDIRIIQELLGHSNLSTTQIYTKVSTKHLKEAV
notes: XerA tyrosine recombinase, Pyrococcus abyssi, deleted for the last 13 amino-acids corresponding to the αN helix alone; In the assay it is covalently linked to the cleaved DNA half site; also called ΔαN helix mutant; source: recombinant, obtained by PCR, expressed and purified following the procedure described for the wild-type enzyme

Tests used:
[1] = biological target: XerA recombinase from Pyrococcus abyssi, C-terminal His-tagged (Pyrococcus abyssi) (UniProt Q9V1P5); experiment: AUC; sedimentation velocity, 25°C, 0.3 mM (11.8 mg.ml^-1) XerA in 20 mM Tris-HCl pH 7.5, 1 M NaCl, 42,000 rpm; c(s) distribution and self-association model with fitted non-ideality; dimer to monomers
[2] = biological target: the molecule itself; experiment: SDS-PAGE of covalent protein-DNA complexes (assemblies resistant to thermal denaturation); 40 pmol XerA protein with 25 nM 5' end-labeled left half recombination site, 30 mM Tris pH 7.5, 50 mM NaCl, 2 h at 65°C, quenched in Laemmli buffer, 10 min at 100°C, 12% SDS-PAGE, phosphorimaging

| Molecule | Kd [1] [µM] | stoichiometry N [1] | fold reduction of the high molecular weight complexes against XerA [2] [fold] |
| --- | --- | --- | --- |
| XerA recombinase from Pyrococcus abyssi, C-terminal His-tagged (from UniProt Q9V1P5 1-286) (enzyme) | > 100 | 2 and 4 |  |
| B1 |  |  | 4 |
